Test [1] has as its target T1, human BAFF protein (ACRO Biosystems, Cat. No.: BAF-H52D4) (human, UniProt Q9Y275 134-285). Put plainly: BLI Octet RED96e, protein captured on AHC sensor, BAFF 100 nM in solution. (Biolayer interferometry detects binding as a change in optical thickness at a sensor tip.)
Test [2] has as its target T2, human APRIL protein (ACRO Biosystems, Cat. No.: APL-H52D1) (human, UniProt O75888 115-250, limits assumed).
T2 sequence (looked up): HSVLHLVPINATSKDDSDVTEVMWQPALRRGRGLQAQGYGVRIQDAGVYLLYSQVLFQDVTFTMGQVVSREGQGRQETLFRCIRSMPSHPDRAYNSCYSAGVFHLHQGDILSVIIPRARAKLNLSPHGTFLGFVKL
Description: BLI Octet RED96e, protein captured on AHC sensor, APRIL 100 nM in solution.

Test [3] deals with T3, human BDCA2 protein (Kactus Biosystems, Cat# BCA-HM402) (human, UniProt Q8WTT0 45-213).
T3 construct: also called Human BDCA2-His
T3 sequence: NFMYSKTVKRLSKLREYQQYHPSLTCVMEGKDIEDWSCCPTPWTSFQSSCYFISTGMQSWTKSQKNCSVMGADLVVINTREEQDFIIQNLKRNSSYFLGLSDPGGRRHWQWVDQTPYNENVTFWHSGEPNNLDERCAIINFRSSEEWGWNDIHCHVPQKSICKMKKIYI
Description: BLI Octet RED96e, protein captured on AHC sensor, BDCA2 100 nM in solution.

The target in test [4] is T3, human BDCA2 protein (Kactus Biosystems, …). Description: BLI Octet RED96e, antibody captured on AHC sensor, BDCA2 100 nM in solution.
Test [5] concerns the target T1, human BAFF protein (ACRO Biosystems, …). Description: BLI Octet RED96e, protein captured on AHC sensor, BAFF 1.56-100 nM in solution.
In test [6] the target is T3, human BDCA2 protein (Kactus Biosystems, …). Put plainly: BLI Octet RED96e, fusion protein captured on AHC sensor, BDCA2 1.56-100 nM in solution.
For test [7], the target named is T2, human APRIL protein (ACRO Biosystems, …). Description: BLI Octet RED96e, protein captured on AHC sensor, APRIL 1.56-100 nM in solution.
For test [8], the target named is T3, human BDCA2 protein (Kactus Biosystems, …). Description: BLI Octet RED96, antibody captured on AHC sensor, BDCA2 50 nM in solution.

T1 sequence (Q9Y275 134-285 limits assumed): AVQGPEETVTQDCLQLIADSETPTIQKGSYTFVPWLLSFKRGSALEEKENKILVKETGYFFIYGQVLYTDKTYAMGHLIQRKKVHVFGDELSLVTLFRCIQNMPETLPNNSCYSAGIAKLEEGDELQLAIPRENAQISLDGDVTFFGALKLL

B1: control antibody litifilimab analogue (antibody, human IgG1, kappa, V domains shown)
VH: DVQLVESGGGLVKPGGSLRLSCAASGFTFSTYTMSWVRQAPGKGLEWVATISPGDSFGYYYPDSVQGRFTISRDNAKNSLYLQMNSLRAEDTAVYYCTRDIYYNYGAWFAYWGQGTLVTVSS
VL: DIQLTQSPSSLSASVGDRVTITCKASQSVDYDGDSYMNWYQQKPGKAPKLLIYAASTLESGVPSRFSGSGSGTDFTLTISSLQPEDFATYYCQQANEDPRTFGQGTKVEIKR
notes: Anti-BDCA2 control antibody expressed in ExpiCHO-S cells
B1: in test [1], the Kd – broadly, the constant that tells how readily two partners part at equilibrium – is below 0.001 nM; the “Response (nm)” value came to 0.0284 nm; the koff (commonly the rate constant with which the complex falls apart) was below 1e-07 s⁻¹; the kon (in general, a measure of how fast the partners come together) amounted to 300000 M⁻¹ s⁻¹. In test [2], the Kd stood at 6.5 nM, the “Response (nm)” value worked out at 0.296 nm, the koff was 0.000643 s⁻¹ and the kon amounted to 99000 M⁻¹ s⁻¹. In test [3], the Kd is below 0.001 nM, the “Response (nm)” value is 0.444 nm, the koff was below 1e-07 s⁻¹ and the on-rate constant (kon) came out at 172000 M⁻¹ s⁻¹.

B2: anti-BDCA2 humanized antibody Hu37F2C6-8 (antibody, human IgG1, kappa, V domains shown)
VH: QVQLVQSGAEVKKPGASVKVSCKASGYTFTDFAVHWVRQAPGQRLEWMGLIGTSSGSTNYNQKFQGRVTMTVDKSANTAYMELSSLRSEDTAVYYCARNGYYVGYYALDYWGQGTTVTVSS
VL: ETVLTQSPATLSLSPGERATLSCRASSSVSYMYWFQQKPGQAPRLLIYSTSNLASGIPARFSGSGSGTDYTLTISSLEPEDFAVYYCQQRRNYPHTFGGGTKVEIKR
In test [4], B2 gave a Kd below 0.001 nM, a koff below 1e-07 s⁻¹ and an association rate constant (kon) of 113000 M⁻¹ s⁻¹.

B3: anti-BDCA2 humanized antibody Hu37F2C6-9 (antibody, human IgG1, kappa, V domains shown)
VH: QVQLVQSGAEVKKPGASVKVSCKASGYTFTDFAVHWVRQAPGQRLEWMGLIGTSSGSTNYNQKFQGRATMTVDKSANTAYMELSSLRSEDTAVYYCARNGYYVGYYALDYWGQGTTVTVSS
VL: ETVLTQSPATLSLSPGERATLSCRASSSVSYMYWFQQKPGQAPRLLIYSTSNLASGIPARFSGSGSGTDYTLTISSLEPEDFAVYYCQQRRNYPHTFGGGTKVEIKR
notes: also called humanized 37F2C6-9
As for B3, in test [4], the Kd is below 0.001 nM, the koff is below 1e-07 s⁻¹ and the kon is 121000 M⁻¹ s⁻¹.

B4: bispecific fusion protein BI-9D2-A (bispecific antibody, human IgG1, kappa)
heavy: not shown
light: ETVLTQSPATLSLSPGERATLSCRASSSVSYMYWFQQKPGQAPRLLIYSTSNLASGIPARFSGSGSGTDYTLTISSLEPEDFAVYYCQQRRNYPHTFGGGTKVEIKRTVAAPSVFIFPPSDEQLKSGTASVVCLLNNFYPREAKVQWKVDNALQSGNSQESVTEQDSKDSTYSLSSTLTLSKADYEKHKVYACEVTHQGLSSPVTKSFNRGEC
notes: also called heavy chain 37F2C6-HuVH3-D2
For B4, the Kd in test [5] was below 0.001 nM; in test [6], below 0.001 nM; in test [7], 0.679 nM; in test [1] it was below 0.001 nM; in test [2] it was 0.246 nM; in test [3], below 0.001 nM. Also, the koff in test [5] is below 1e-07 s⁻¹; in test [6], below 1e-07 s⁻¹; in test [7] it was 0.00059 s⁻¹; in test [1], below 1e-07 s⁻¹; in test [2], 0.000214 s⁻¹; in test [3] it was below 1e-07 s⁻¹. Also, the on-rate (kon) in test [5] was 571000 M⁻¹ s⁻¹; in test [6], 88800 M⁻¹ s⁻¹; in test [7], 868000 M⁻¹ s⁻¹; in test [1], 407000 M⁻¹ s⁻¹; in test [2] it was 873000 M⁻¹ s⁻¹; in test [3], 154000 M⁻¹ s⁻¹. Moreover, the “Response (nm)” value stood at 0.338 nm in test [1], 0.252 nm in test [2] and 0.481 nm in test [3].

B5: bispecific fusion protein BI-9NTACI-A (bispecific antibody, human IgG1, kappa)
heavy: not shown
light: ETVLTQSPATLSLSPGERATLSCRASSSVSYMYWFQQKPGQAPRLLIYSTSNLASGIPARFSGSGSGTDYTLTISSLEPEDFAVYYCQQRRNYPHTFGGGTKVEIKRTVAAPSVFIFPPSDEQLKSGTASVVCLLNNFYPREAKVQWKVDNALQSGNSQESVTEQDSKDSTYSLSSTLTLSKADYEKHKVYACEVTHQGLSSPVTKSFNRGEC
notes: also called heavy chain 37F2C6-HuVH3-3N-TACI
Consider B5, for which the Kd in test [5] was 0.951 nM; in test [6], below 0.001 nM; in test [7], 0.619 nM. Further, the koff in test [5] was 0.000342 s⁻¹; in test [6], below 1e-07 s⁻¹; in test [7], 0.000478 s⁻¹. The kon in test [5] was found to be 360000 M⁻¹ s⁻¹; in test [6], 85400 M⁻¹ s⁻¹; in test [7] it was 772000 M⁻¹ s⁻¹.

B6: bispecific fusion protein BI-9D2-3G4S-8S (bispecific antibody, human IgG1, kappa)
heavy: not shown
light: ETVLTQSPATLSLSPGERATLSCRASSSVSYMYWFQQKPGQAPRLLIYSTSNLASGIPARFSGSGSGTDYTLTISSLEPEDFAVYYCQQRRNYPHTFGGGTKVEIKRTVAAPSVFIFPPSDEQLKSGTASVVCLLNNFYPREAKVQWKVDNALQSGNSQESVTEQDSKDSTYSLSSTLTLSKADYEKHKVYACEVTHQGLSSPVTKSFNRGEC
Regarding B6, in test [1], the dissociation constant Kd is below 0.001 nM, the “Response (nm)” value stood at 0.394 nm, the koff was below 1e-07 s⁻¹ and the kon was determined as 402000 M⁻¹ s⁻¹. Moreover, in test [2], the Kd stood at 0.166 nM, the “Response (nm)” value is 0.29 nm, the koff was found to be 0.000134 s⁻¹ and the kon turned out to be 808000 M⁻¹ s⁻¹. In test [3], the Kd is below 0.001 nM, the “Response (nm)” value was 0.476 nm, the koff is below 1e-07 s⁻¹ and the kon came to 154000 M⁻¹ s⁻¹.

B7: bispecific fusion protein BI-9D2-3G4S-4S (bispecific antibody, human IgG1, kappa)
heavy: not shown
light: ETVLTQSPATLSLSPGERATLSCRASSSVSYMYWFQQKPGQAPRLLIYSTSNLASGIPARFSGSGSGTDYTLTISSLEPEDFAVYYCQQRRNYPHTFGGGTKVEIKRTVAAPSVFIFPPSDEQLKSGTASVVCLLNNFYPREAKVQWKVDNALQSGNSQESVTEQDSKDSTYSLSSTLTLSKADYEKHKVYACEVTHQGLSSPVTKSFNRGEC
As for B7, in test [1], the Kd is below 0.001 nM, the “Response (nm)” value amounted to 0.358 nm, the koff was below 1e-07 s⁻¹ and the kon is 382000 M⁻¹ s⁻¹. In test [2], binding was put at a Kd of 0.528 nM, the “Response (nm)” value was found to be 0.285 nm, the koff was 0.000435 s⁻¹ and the on-rate (kon) turned out to be 824000 M⁻¹ s⁻¹. In test [3], the Kd was below 0.001 nM, the “Response (nm)” value amounted to 0.457 nm, the koff is below 1e-07 s⁻¹ and the kon was determined as 155000 M⁻¹ s⁻¹.

B8: anti-BDCA2 chimeric antibody 26H10A11-1 (antibody, human IgG1, kappa, V domains shown)
VH: DVKLVESGGGLVKPGGSLKLSCAASGFTFSSSTMSWVRQTPEKRLEWVATTGGGGSYTYNPDSVKGRFTISRDNAKNTLYLQMSSLRSEDTAMYYCTRDRYDGYYFSMDFWGQGTSVTVSS
VL: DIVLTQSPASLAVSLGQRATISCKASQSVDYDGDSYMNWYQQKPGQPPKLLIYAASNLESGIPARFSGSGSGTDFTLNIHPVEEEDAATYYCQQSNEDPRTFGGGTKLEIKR
In test [8], B8 gave a Kd of 0.503 nM, a koff of 6.16e-05 s⁻¹ and a kon of 123000 M⁻¹ s⁻¹.

B9: anti-BDCA2 chimeric antibody 37F2C6 (antibody, human IgG1, kappa, V domains shown)
VH: QVLLQQSGPELVRPGVSVKVSCKGSGYTFTDFAVHWVKQSQTKSLEWIGLIGTSSGSTNYNQKFKDKATMTVDKSSNTAYLELARLTSEDSAIYYCARNGYYVGYYALDYWGQGTSVTVSS
VL: QTVLTQSPAIMSASPGEKVTITCSASSSVSYMYWFQQKPGTSPKLWIYSTSNLASGVPPRFSGSGSGTSYSLTISRMEAEDAATYYCQQRRNYPHTFGGGTKLEIKR
With B9, in test [4], the Kd is below 0.001 nM, the koff is below 1e-07 s⁻¹ and the kon is 141000 M⁻¹ s⁻¹. In test [8], this molecule came in with a Kd below 0.001 nM, a koff below 1e-07 s⁻¹ and a kon of 161000 M⁻¹ s⁻¹.

(Values after patent EP4786495A1 (Nanjing Leads Biolabs Co., Ltd., dated 2026).)
